# US20210292396A1 (INTERNATIONAL AIDS VACCINE INITIATIVE, published 2021)
# Experiments:
# Test in all cases: cell-based or functional assay
# [1] = target: HIV Env of isolate Q23.17 (HIV)
# [2] = target: HIV Env of isolate 6952.v1.c20 (HIV)
# [3] = target: HIV Env of isolate 191084_B7-19 (HIV)
# [4] = target: HIV Env of isolate T278-50 (HIV)
# [5] = target: HIV Env of isolate 620345.c01 (HIV)
# [6] = target: HIV Env of isolate 6240_08_TA5_4622 (HIV)
# [7] = target: HIV Env of isolate ZM109F.PB4 (HIV)
# [8] = target: HIV Env of isolate Ce703010054_2A2 (HIV)
# [9] = target: HIV Env of isolate HIV-001428-2.42 (HIV)
# HIV Env of isolate CNE21 = HIV Env of isolate CNE21 (HIV)
# [10] = target: HIV Env of isolate Q769.d22 (HIV)
# HIV Env of isolate CNE58 = HIV Env of isolate CNE58 (HIV)
# [11] = target: HIV Env of isolate Du156.12 (HIV)
# [12] = target: HIV Env of isolate ZM214M.PL15 (HIV)
# [13] = target: HIV Env of isolate C3347.c11 (HIV)
# [14] = target: HIV Env of isolate CAP210.2.00.E8 (HIV)
# [15] = target: HIV Env of isolate X2131_C1_B5 (HIV)
# [16] = target: HIV Env of isolate 6535.3 (HIV)
# [17] = target: HIV Env of isolate 235-47 (HIV)
# [18] = target: HIV Env of isolate 0815.v3.c3 (HIV)
# [19] = target: HIV Env of isolate BJOX028000.10.3 (HIV)
# [20] = target: HIV Env of isolate X2088_c9 (HIV)
# [21] = target: HIV Env of isolate 3301.v1.c24 (HIV)
# [22] = target: HIV Env of isolate T257-31 (HIV)
# [23] = target: HIV Env of isolate BJOX009000.02.4 (HIV)
# HIV Env of isolate PVO.4 = HIV Env of isolate PVO.4 (HIV)
# [24] = target: HIV Env of isolate WITO4160.33 (HIV)
# [25] = target: HIV Env of isolate R1166.c01 (HIV)
# [26] = target: HIV Env of isolate SC422661.8 (HIV)
# [27] = target: HIV Env of isolate 1012_11_TC21_3257 (HIV)
# [28] = target: HIV Env of isolate X1254_c3 (HIV)
# [29] = target: HIV Env of isolate ZM247v1(Rev-) (HIV)
# [30] = target: HIV Env of isolate BJOX015000.11.5 (HIV)
# [31] = target: HIV Env of isolate 1054_07_TC4_1499 (HIV)
# [32] = target: HIV Env of isolate Ce1176_A3 (HIV)
# [33] = target: HIV Env of isolate P1981_C5_3 (HIV)
# [34] = target: HIV Env of isolate 3817.v2.c59 (HIV)
# [35] = target: HIV Env of isolate BF1266.431a (HIV)
# [36] = target: HIV Env of isolate 231965.c01 (HIV)
# [37] = target: HIV Env of isolate X1632_S2_B10 (HIV)
# HIV Env of isolate CNE17 = HIV Env of isolate CNE17 (HIV)
# [38] = target: HIV Env of isolate BJOX025000.01.1 (HIV)
# HIV Env of isolate CNE5 = HIV Env of isolate CNE5 (HIV)
# [39] = target: HIV Env of isolate T255-34 (HIV)
# [40] = target: HIV Env of isolate QH0692.42 (HIV)
binder,measurement,setting,value
"ePGT121.15.H1.L1 (antibody, V domains shown) VH: QMQLQESGPGLVKPGETLSLTCSVSGASISSSYWSWLRETPGKGLEWIGYTHHSGDTNYAPSLKSRVHLGLHPSKNQVSLSLTSVTAADTAVYYCARTLHGRRIYGVVAFNEWFTYFYWEVWGNGTQVTVSS VL: SDISVAPGETVRISCGGESIGSRAVQWYQHRAGQAPKLIIYNNQDRPPGIPERFSGSPDIDFGTTATLTITNVEAGDEATYYCHIWDSRRPTNWVFGGGTTLTVL",neutralization IC50,[1],0.0004 µg/mL
same,neutralization IC50,[2],0.0009 µg/mL
same,neutralization IC50,[3],0.0009 µg/mL
same,neutralization IC50,[4],0.0124 µg/mL
same,neutralization IC50,[5],> 50 µg/mL
same,neutralization IC50,[6],0.0022 µg/mL
same,neutralization IC50,[7],10.7 µg/mL
same,neutralization IC50,[8],> 50 µg/mL
same,neutralization IC50,[9],0.0001 µg/mL
same,neutralization IC50,HIV Env of isolate CNE21,0.0001 µg/mL
same,neutralization IC50,[10],> 50 µg/mL
same,neutralization IC50,HIV Env of isolate CNE58,0.0025 µg/mL
same,neutralization IC50,[11],0.0001 µg/mL
same,neutralization IC50,[12],0.0006 µg/mL
same,neutralization IC50,[13],> 50 µg/mL
same,neutralization IC50,[14],0.0052 µg/mL
same,neutralization IC50,[15],0.0004 µg/mL
same,neutralization IC50,[16],0.0003 µg/mL
same,neutralization IC50,[17],0.0019 µg/mL
same,neutralization IC50,[18],0.0017 µg/mL
same,neutralization IC50,[19],0.0021 µg/mL
same,neutralization IC50,[20],0.0007 µg/mL
same,neutralization IC50,[21],0.0029 µg/mL
same,neutralization IC50,[22],> 50 µg/mL
same,neutralization IC50,[23],0.0046 µg/mL
same,neutralization IC50,HIV Env of isolate PVO.4,0.0004 µg/mL
same,neutralization IC50,[24],0.0011 µg/mL
same,neutralization IC50,[25],> 50 µg/mL
same,neutralization IC50,[26],0.0005 µg/mL
same,neutralization IC50,[27],0.0009 µg/mL
same,neutralization IC50,[28],0.0014 µg/mL
same,neutralization IC50,[29],0.0003 µg/mL
same,neutralization IC50,[30],> 50 µg/mL
same,neutralization IC50,[31],0.0001 µg/mL
same,neutralization IC50,[32],0.0004 µg/mL
same,neutralization IC50,[33],0.0014 µg/mL
same,neutralization IC50,[34],0.724 µg/mL
same,neutralization IC50,[35],> 50 µg/mL
same,neutralization IC50,[36],> 50 µg/mL
same,neutralization IC50,[37],> 50 µg/mL
same,neutralization IC50,HIV Env of isolate CNE17,0.0037 µg/mL
same,neutralization IC50,[38],> 50 µg/mL
same,neutralization IC50,HIV Env of isolate CNE5,15.8 µg/mL
same,neutralization IC50,[39],0.0221 µg/mL
same,neutralization IC50,[40],0.0008 µg/mL
"PGT-121 (antibody, V domains shown) VH: QMQLQESGPGLVKPSETLSLTCSVSGASISDSYWSWIRRSPGKGLEWIGYVHKSGDTNYSPSLKSRVNLSLDTSKNQVSLSLVAATAADSGKYYCARTLHGRRIYGIVAFNEWFTYFYMDVWGNGTQVTVSS VL: SDISVAPGETARISCGEKSLGSRAVQWYQHRAGQAPSLIIYNNQDRPSGIPERFSGSPDSPFGTTATLTITSVEAGDEADYYCHIWDSRVPTKWVFGGGTTLTVLG",neutralization IC50,[1],0.001 µg/mL
same,neutralization IC50,[2],0.056 µg/mL
same,neutralization IC50,[3],0.011 µg/mL
same,neutralization IC50,[4],> 50 µg/mL
same,neutralization IC50,[5],> 50 µg/mL
same,neutralization IC50,[6],0.033 µg/mL
same,neutralization IC50,[7],8.64 µg/mL
same,neutralization IC50,[8],> 50 µg/mL
same,neutralization IC50,[9],0.014 µg/mL
same,neutralization IC50,HIV Env of isolate CNE21,0.007 µg/mL
same,neutralization IC50,[10],> 50 µg/mL
same,neutralization IC50,HIV Env of isolate CNE58,> 50 µg/mL
same,neutralization IC50,[11],0.004 µg/mL
same,neutralization IC50,[12],0.46 µg/mL
same,neutralization IC50,[13],> 50 µg/mL
same,neutralization IC50,[14],26.3 µg/mL
same,neutralization IC50,[15],0.004 µg/mL
same,neutralization IC50,[16],0.002 µg/mL
same,neutralization IC50,[17],0.137 µg/mL
same,neutralization IC50,[18],0.025 µg/mL
same,neutralization IC50,[19],> 50 µg/mL
same,neutralization IC50,[20],0.003 µg/mL
same,neutralization IC50,[21],0.008 µg/mL
same,neutralization IC50,[22],> 50 µg/mL
same,neutralization IC50,[23],2.86 µg/mL
same,neutralization IC50,HIV Env of isolate PVO.4,0.098 µg/mL
same,neutralization IC50,[24],0.334 µg/mL
same,neutralization IC50,[25],> 50 µg/mL
same,neutralization IC50,[26],0.038 µg/mL
same,neutralization IC50,[27],0.003 µg/mL
same,neutralization IC50,[28],0.014 µg/mL
same,neutralization IC50,[29],0.028 µg/mL
same,neutralization IC50,[30],> 50 µg/mL
same,neutralization IC50,[31],0.064 µg/mL
same,neutralization IC50,[32],0.013 µg/mL
same,neutralization IC50,[33],0.001 µg/mL
same,neutralization IC50,[34],18.9 µg/mL
same,neutralization IC50,[35],> 50 µg/mL
same,neutralization IC50,[36],> 50 µg/mL
same,neutralization IC50,[37],> 50 µg/mL
same,neutralization IC50,HIV Env of isolate CNE17,7.6 µg/mL
same,neutralization IC50,[38],> 50 µg/mL
same,neutralization IC50,HIV Env of isolate CNE5,> 50 µg/mL
same,neutralization IC50,[39],18.7 µg/mL
same,neutralization IC50,[40],0.302 µg/mL
